Molecular target: T1, TtdV-His6;TtdW-His6 (Salmonella enterica serovar Typhimurium IR715 (ATCC14028 NalR);Salmonella enterica serovar Typhimurium IR715 (ATCC14028 NalR)) (UniProt Q8ZLP8+Q8ZLP7)
T1 sequence 1: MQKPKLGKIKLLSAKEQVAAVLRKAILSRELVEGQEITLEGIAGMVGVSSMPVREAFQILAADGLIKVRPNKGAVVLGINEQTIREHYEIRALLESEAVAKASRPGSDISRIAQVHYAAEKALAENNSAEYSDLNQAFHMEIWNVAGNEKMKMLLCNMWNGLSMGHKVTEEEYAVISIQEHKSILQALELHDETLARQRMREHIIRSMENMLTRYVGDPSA
T1 sequence 2: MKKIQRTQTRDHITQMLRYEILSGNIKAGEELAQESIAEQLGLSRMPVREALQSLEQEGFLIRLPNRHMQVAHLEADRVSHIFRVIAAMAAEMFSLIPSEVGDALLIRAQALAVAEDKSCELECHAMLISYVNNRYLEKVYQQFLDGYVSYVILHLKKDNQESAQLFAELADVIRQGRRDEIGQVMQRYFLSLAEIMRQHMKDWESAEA
Assay: EMSA
Conditions: LightShift Chemiluminescent EMSA kit (binding buffer, salt and pH not given), 20 min room temperature; 20 fmol probe, 6% 0.5x TBE gel (TtdV/TtdW); 50 fmol …

With “CGTATGCTGACCCGCTATGTTGGTGACCCTTCTGCCTGATCTTTTCGCCTGCGTGAGCATCGCAGGCGCTTCAACCAATTCTTCAATTCTATTAATCACGTCCAGTAACGATCTAACCACGATCTTGATGTAGATCCCACTCCTGCATCTTTCCTGAGAAACGATTTGACTTAGTTTTTGTATGGGAATAATTTCTCCCTGTCAACATTGGATACAATATCATATATCATTGATTGGATAATTATAAATATGGAACCCATTACCCTTACCTTATGTTTATTGGTGTTCGCCC (double strand) [Probe 4]” the binding was “binds”.

Source: paper PMC11237755
